Each block holds one sequence with its values, some of them ahead of it.
Legend:
RNF31 UBA domain = target: T1, RNF31 UBA domain (Homo sapiens, UniProt Q96EP0); experiment: Phage Library Screening with NGS, RNF31 UBA domain; type: binding; conditions: for Phage library screen NGS readout, Target Concentration 10 / Phage library screen NGS readout, Target Concentration 30 / Phage library screen NGS readout, Target Concentration 100 / Phage library screen NGS readout, Target Concentration 300 / Phage library screen NGS readout, Target Concentration 1000: RNF31 UBA domain cluster C46; for Phage library screen NGS readout, BLANK: cluster C46; for phage screen NGS read-out at Target Concentration 10 / phage screen NGS read-out at Target Concentration 30 / phage screen NGS read-out at Target Concentration 100 / phage screen NGS read-out at Target Concentration 300: no competitor
T1 construct: RNF31 UBA domain protein (residues 480-639) with N-terminal Thioredoxin-TEV-6×his-yBBr-3C tags; Thioredoxin (N, cleaved yes); made in house; host or cells: E. coli BL21 (DE3) pLysS
T1 sequence (Q96EP0 480-639): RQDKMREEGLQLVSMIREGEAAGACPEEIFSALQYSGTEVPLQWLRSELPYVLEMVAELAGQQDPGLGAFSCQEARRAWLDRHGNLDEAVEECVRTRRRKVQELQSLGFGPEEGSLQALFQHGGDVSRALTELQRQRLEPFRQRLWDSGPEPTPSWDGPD

beta-catenin = target: T2, beta-catenin (Homo sapiens, UniProt P35222); experiment: Phage Library Screening with NGS, beta-catenin; type: binding; conditions: for Target Concentration 10 (phage screen NGS readout): beta-catenin target concentration 10; for Target Concentration 10 (phage screen NGS readout) / Target Concentration 30 (phage screen NGS readout) / Target Concentration 100 (phage screen NGS readout) / Target Concentration 300 (phage screen NGS readout): no competitor; for Target Concentration 30 (phage screen NGS readout): beta-catenin target concentration 30; for Target Concentration 100 (phage screen NGS readout): beta-catenin target concentration 100; for Target Concentration 300 (phage screen NGS readout): beta-catenin target concentration 300; for Target Concentration 1000 (phage screen NGS readout): beta-catenin target concentration 1000
T2 construct: made in house; host or cells: E. coli BL21 (DE3) pLysS
T2 sequence (P35222 134-665): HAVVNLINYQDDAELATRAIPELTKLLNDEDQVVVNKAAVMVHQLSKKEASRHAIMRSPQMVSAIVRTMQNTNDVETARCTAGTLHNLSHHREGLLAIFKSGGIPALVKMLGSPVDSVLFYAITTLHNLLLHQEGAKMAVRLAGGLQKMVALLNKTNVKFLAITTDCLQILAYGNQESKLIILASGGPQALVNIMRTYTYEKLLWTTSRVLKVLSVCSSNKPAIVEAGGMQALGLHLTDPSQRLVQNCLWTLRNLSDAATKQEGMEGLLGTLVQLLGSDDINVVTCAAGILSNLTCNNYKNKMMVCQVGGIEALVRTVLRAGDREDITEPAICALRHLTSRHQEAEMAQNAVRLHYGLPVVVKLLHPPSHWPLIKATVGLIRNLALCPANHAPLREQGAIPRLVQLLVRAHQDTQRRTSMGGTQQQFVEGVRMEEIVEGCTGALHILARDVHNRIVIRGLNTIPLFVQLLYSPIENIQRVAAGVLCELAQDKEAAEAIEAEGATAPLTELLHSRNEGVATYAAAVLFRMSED

[1] = target concentration 1000, first column
[2] = target concentration 1000, second column

Sequence: DPAFSECVYAAIYCVHS
phage screen NGS read-out at Target Concentration 10 (RNF31 UBA domain): 0 | phage screen NGS read-out at Target Concentration 30 (RNF31 UBA domain): 0 | phage screen NGS read-out at Target Concentration 100 (RNF31 UBA domain): 0 | phage screen NGS read-out at Target Concentration 300 (RNF31 UBA domain): 7

Sequence: DPAQWVCHMAAMNCLYQ
phage screen NGS read-out at Target Concentration 10 (RNF31 UBA domain): 0 | phage screen NGS read-out at Target Concentration 30 (RNF31 UBA domain): 1 | phage screen NGS read-out at Target Concentration 100 (RNF31 UBA domain): 0 | phage screen NGS read-out at Target Concentration 300 (RNF31 UBA domain): 4

Sequence: DPAEQRCLSAAVYCAWH
Phage library screen NGS readout, Target Concentration 10 (RNF31 UBA domain): 1 | Phage library screen NGS readout, Target Concentration 30 (RNF31 UBA domain): 3 | Phage library screen NGS readout, Target Concentration 100 (RNF31 UBA domain): 16 | Phage library screen NGS readout, Target Concentration 300 (RNF31 UBA domain): 18 | Phage library screen NGS readout, Target Concentration 1000 (RNF31 UBA domain; [1]): 36 | Phage library screen NGS readout, Target Concentration 1000 (RNF31 UBA domain; [2]): 26 | Phage library screen NGS readout, BLANK (RNF31 UBA domain; column 1 of 5): 0 | Phage library screen NGS readout, BLANK (RNF31 UBA domain; column 2 of 5): 1 | Phage library screen NGS readout, BLANK (RNF31 UBA domain; column 3 of 5): 1 | Phage library screen NGS readout, BLANK (RNF31 UBA domain; column 4 of 5): 0 | Phage library screen NGS readout, BLANK (RNF31 UBA domain; column 5 of 5): 0

Sequence: DPAVQSCLSAAVYCAFR
Phage library screen NGS readout, Target Concentration 10 (RNF31 UBA domain): 2 | Phage library screen NGS readout, Target Concentration 30 (RNF31 UBA domain): 9 | Phage library screen NGS readout, Target Concentration 100 (RNF31 UBA domain): 68 | Phage library screen NGS readout, Target Concentration 300 (RNF31 UBA domain): 106 | Phage library screen NGS readout, Target Concentration 1000 (RNF31 UBA domain; [1]): 117 | Phage library screen NGS readout, Target Concentration 1000 (RNF31 UBA domain; [2]): 118 | Phage library screen NGS readout, BLANK (RNF31 UBA domain; column 1 of 5): 0 | Phage library screen NGS readout, BLANK (RNF31 UBA domain; column 2 of 5): 1 | Phage library screen NGS readout, BLANK (RNF31 UBA domain; column 3 of 5): 2 | Phage library screen NGS readout, BLANK (RNF31 UBA domain; column 4 of 5): 0 | Phage library screen NGS readout, BLANK (RNF31 UBA domain; column 5 of 5): 1

Sequence: DPAEIICYEAAFLCQYQ
Target Concentration BLANK (phage screen NGS readout) (beta-catenin; first column): 0 | Target Concentration BLANK (phage screen NGS readout) (beta-catenin; fourth column): 0 | Target Concentration BLANK (phage screen NGS readout) (beta-catenin; second column): 0 | Target Concentration BLANK (phage screen NGS readout) (beta-catenin; third column): 0 | Target Concentration 10 (phage screen NGS readout) (beta-catenin): 0 | Target Concentration 30 (phage screen NGS readout) (beta-catenin): 0 | Target Concentration 100 (phage screen NGS readout) (beta-catenin): 0 | Target Concentration 300 (phage screen NGS readout) (beta-catenin): 15 | Target Concentration 1000 (phage screen NGS readout) (beta-catenin; first 1000 column): 38 | Target Concentration 1000 (phage screen NGS readout) (beta-catenin; second 1000 column): 26

Sequence: DPAWQNCTWAAFHCELL
Target Concentration BLANK (phage screen NGS readout) (beta-catenin; first column): 0 | Target Concentration BLANK (phage screen NGS readout) (beta-catenin; fourth column): 0 | Target Concentration BLANK (phage screen NGS readout) (beta-catenin; second column): 1 | Target Concentration BLANK (phage screen NGS readout) (beta-catenin; third column): 0 | Target Concentration 10 (phage screen NGS readout) (beta-catenin): 0 | Target Concentration 30 (phage screen NGS readout) (beta-catenin): 10 | Target Concentration 100 (phage screen NGS readout) (beta-catenin): 52 | Target Concentration 300 (phage screen NGS readout) (beta-catenin): 194 | Target Concentration 1000 (phage screen NGS readout) (beta-catenin; first 1000 column): 158 | Target Concentration 1000 (phage screen NGS readout) (beta-catenin; second 1000 column): 163

Other lines, results leading:

Phage library screen NGS readout, Target Concentration 10 (RNF31 UBA domain): 6 | Phage library screen NGS readout, Target Concentration 30 (RNF31 UBA domain): 49 | Phage library screen NGS readout, Target Concentration 100 (RNF31 UBA domain): 132 | Phage library screen NGS readout, Target Concentration 300 (RNF31 UBA domain): 200 | Phage library screen NGS readout, Target Concentration 1000 (RNF31 UBA domain; [1]): 199 | Phage library screen NGS readout, Target Concentration 1000 (RNF31 UBA domain; [2]): 246 | Phage library screen NGS readout, BLANK (RNF31 UBA domain; column 1 of 5): 0 | Phage library screen NGS readout, BLANK (RNF31 UBA domain; column 2 of 5): 1 | Phage library screen NGS readout, BLANK (RNF31 UBA domain; column 3 of 5): 2 | Phage library screen NGS readout, BLANK (RNF31 UBA domain; column 4 of 5): 0 | Phage library screen NGS readout, BLANK (RNF31 UBA domain; column 5 of 5): 1
Sequence: DPAALACLSAAVYCEMY

phage screen NGS read-out at Target Concentration 10 (RNF31 UBA domain): 0 | phage screen NGS read-out at Target Concentration 30 (RNF31 UBA domain): 0 | phage screen NGS read-out at Target Concentration 100 (RNF31 UBA domain): 2 | phage screen NGS read-out at Target Concentration 300 (RNF31 UBA domain): 19
Sequence: DPAEYHCDAAAVWCYLM

phage screen NGS read-out at Target Concentration 10 (RNF31 UBA domain): 2 | phage screen NGS read-out at Target Concentration 30 (RNF31 UBA domain): 0 | phage screen NGS read-out at Target Concentration 100 (RNF31 UBA domain): 1 | phage screen NGS read-out at Target Concentration 300 (RNF31 UBA domain): 1
Sequence: DPAFSECVYAATMCLNH

phage screen NGS read-out at Target Concentration 10 (RNF31 UBA domain): 0 | phage screen NGS read-out at Target Concentration 30 (RNF31 UBA domain): 2 | phage screen NGS read-out at Target Concentration 100 (RNF31 UBA domain): 0 | phage screen NGS read-out at Target Concentration 300 (RNF31 UBA domain): 4
Sequence: DPALSQCVYAAVFCQNL

phage screen NGS read-out at Target Concentration 10 (RNF31 UBA domain): 0 | phage screen NGS read-out at Target Concentration 30 (RNF31 UBA domain): 0 | phage screen NGS read-out at Target Concentration 100 (RNF31 UBA domain): 0 | phage screen NGS read-out at Target Concentration 300 (RNF31 UBA domain): 1
Sequence: DPAFSLCVYAAVECDHA

phage screen NGS read-out at Target Concentration 10 (RNF31 UBA domain): 0 | phage screen NGS read-out at Target Concentration 30 (RNF31 UBA domain): 0 | phage screen NGS read-out at Target Concentration 100 (RNF31 UBA domain): 1 | phage screen NGS read-out at Target Concentration 300 (RNF31 UBA domain): 10
Sequence: DPAQQHCSAAAAWCVVL

phage screen NGS read-out at Target Concentration 10 (RNF31 UBA domain): 0 | phage screen NGS read-out at Target Concentration 30 (RNF31 UBA domain): 0 | phage screen NGS read-out at Target Concentration 100 (RNF31 UBA domain): 0 | phage screen NGS read-out at Target Concentration 300 (RNF31 UBA domain): 8
Sequence: DPARYHCEAAAAWCELL

Target Concentration BLANK (phage screen NGS readout) (beta-catenin; first column): 0 | Target Concentration BLANK (phage screen NGS readout) (beta-catenin; fourth column): 0 | Target Concentration BLANK (phage screen NGS readout) (beta-catenin; second column): 0 | Target Concentration BLANK (phage screen NGS readout) (beta-catenin; third column): 0 | Target Concentration 10 (phage screen NGS readout) (beta-catenin): 0 | Target Concentration 30 (phage screen NGS readout) (beta-catenin): 0 | Target Concentration 100 (phage screen NGS readout) (beta-catenin): 0 | Target Concentration 300 (phage screen NGS readout) (beta-catenin): 0 | Target Concentration 1000 (phage screen NGS readout) (beta-catenin; first 1000 column): 7 | Target Concentration 1000 (phage screen NGS readout) (beta-catenin; second 1000 column): 0
Sequence: DPAMVTCYEAAYVCQYF

— US20240376151A1, “STAPLED PEPTIDES AND METHODS THEREOF” (FOG PHARMACEUTICALS, INC., priority 2022, published 2024)
